B1: RECQ1-WT (full-length His-tagged human RECQ1) (enzyme, UniProt P46063 1-649, looked up)
chain: MASVSALTEELDSITSELHAVEIQIQELTERQQELIQKKKVLTKKIKQCLEDSDAGASNEYDSSPAAWNKEDFPWSGKVKDILQNVFKLEKFRPLQLETINVTMAGKEVFLVMPTGGGKSLCYQLPALCSDGFTLVICPLISLMEDQLMVLKQLGISATMLNASSSKEHVKWVHAEMVNKNSELKLIYVTPEKIAKSKMFMSRLEKAYEARRFTRIAVDEVHCCSQWGHDFRPDYKALGILKRQFPNASLIGLTATATNHVLTDAQKILCIEKCFTFTASFNRPNLYYEVRQKPSNTEDFIEDIVKLINGRYKGQSGIIYCFSQKDSEQVTVSLQNLGIHAGAYHANLEPEDKTTVHRKWSANEIQVVVATVAFGMGIDKPDVRFVIHHSMSKSMENYYQESGRAGRDDMKADCILYYGFGDIFRISSMVVMENVGQQKLYEMVSYCQNISKCRRVLMAQHFDEVWNSEACNKMCDNCCKDSAFERKNITEYCRDLIKILKQAEELNEKLTPLKLIDSWMGKGAAKLRVAGVVAPTLPREDLEKIIAHFLIQQYLKEDYSFTAYATISYLKIGPKANLLNNEAHAITMQVTKSTQNSFRAESSQTCHSEQGDKKMEEKNSGNFQKKAANMLQQSGSKNTGAKKRKIDDA
B2: RECQ1-W227A (full-length His-tagged human RECQ1 aromatic loop mutant) (enzyme, UniProt P46063 1-649, looked up)
chain: MASVSALTEELDSITSELHAVEIQIQELTERQQELIQKKKVLTKKIKQCLEDSDAGASNEYDSSPAAWNKEDFPWSGKVKDILQNVFKLEKFRPLQLETINVTMAGKEVFLVMPTGGGKSLCYQLPALCSDGFTLVICPLISLMEDQLMVLKQLGISATMLNASSSKEHVKWVHAEMVNKNSELKLIYVTPEKIAKSKMFMSRLEKAYEARRFTRIAVDEVHCCSQAGHDFRPDYKALGILKRQFPNASLIGLTATATNHVLTDAQKILCIEKCFTFTASFNRPNLYYEVRQKPSNTEDFIEDIVKLINGRYKGQSGIIYCFSQKDSEQVTVSLQNLGIHAGAYHANLEPEDKTTVHRKWSANEIQVVVATVAFGMGIDKPDVRFVIHHSMSKSMENYYQESGRAGRDDMKADCILYYGFGDIFRISSMVVMENVGQQKLYEMVSYCQNISKCRRVLMAQHFDEVWNSEACNKMCDNCCKDSAFERKNITEYCRDLIKILKQAEELNEKLTPLKLIDSWMGKGAAKLRVAGVVAPTLPREDLEKIIAHFLIQQYLKEDYSFTAYATISYLKIGPKANLLNNEAHAITMQVTKSTQNSFRAESSQTCHSEQGDKKMEEKNSGNFQKKAANMLQQSGSKNTGAKKRKIDDA
B3: RECQ1-F231A (full-length His-tagged human RECQ1 aromatic loop mutant) (enzyme, UniProt P46063 1-649, looked up)
chain: MASVSALTEELDSITSELHAVEIQIQELTERQQELIQKKKVLTKKIKQCLEDSDAGASNEYDSSPAAWNKEDFPWSGKVKDILQNVFKLEKFRPLQLETINVTMAGKEVFLVMPTGGGKSLCYQLPALCSDGFTLVICPLISLMEDQLMVLKQLGISATMLNASSSKEHVKWVHAEMVNKNSELKLIYVTPEKIAKSKMFMSRLEKAYEARRFTRIAVDEVHCCSQWGHDARPDYKALGILKRQFPNASLIGLTATATNHVLTDAQKILCIEKCFTFTASFNRPNLYYEVRQKPSNTEDFIEDIVKLINGRYKGQSGIIYCFSQKDSEQVTVSLQNLGIHAGAYHANLEPEDKTTVHRKWSANEIQVVVATVAFGMGIDKPDVRFVIHHSMSKSMENYYQESGRAGRDDMKADCILYYGFGDIFRISSMVVMENVGQQKLYEMVSYCQNISKCRRVLMAQHFDEVWNSEACNKMCDNCCKDSAFERKNITEYCRDLIKILKQAEELNEKLTPLKLIDSWMGKGAAKLRVAGVVAPTLPREDLEKIIAHFLIQQYLKEDYSFTAYATISYLKIGPKANLLNNEAHAITMQVTKSTQNSFRAESSQTCHSEQGDKKMEEKNSGNFQKKAANMLQQSGSKNTGAKKRKIDDA

Target: the molecule itself
Test: SEC

Binding result, binds:
B1
B2
B3
